The Immune Epitope Database (IEDB)

Legend:
HLA-A*02:01 = assay: IEDB peptide-MHC binding, purified MHC/competitive/fluorescence; filed as Kd, often an IC50 or EC50 that approximates it; ≥ and ≤ were set here for values at or beyond the usual limits of such assays
HLA-A*68:02 = assay: IEDB peptide-MHC binding, purified MHC/competitive/radioactivity; filed as Kd, often an IC50 or EC50 that approximates it; ≥ and ≤ were set here for values at or beyond the usual limits of such assays
HLA-B*08:01 = assay: as above
HLA-A*30:01 = assay: as above
HLA-A*23:01 = assay: as above
HLA-A*24:02 = assay: as above
HLA-A*29:02 = assay: as above
HLA-B*57:01 = assay: IEDB peptide-MHC binding, purified MHC/direct/fluorescence; filed as Kd, often an IC50 or EC50 that approximates it; ≥ and ≤ were set here for values at or beyond the usual limits of such assays; conditions: source organism: Salmonella enterica
HLA-B*58:01 = assay: as above; conditions: source organism: Salmonella enterica
HLA-A*01:01 = assay: IEDB peptide-MHC binding, purified MHC/competitive/radioactivity; filed as Kd, often an IC50 or EC50 that approximates it; ≥ and ≤ were set here for values at or beyond the usual limits of such assays
HLA-A*26:01 = assay: as above
HLA-A*30:02 = assay: as above
HLA-B*51:01 = assay: as above
HLA-B*53:01 = assay: as above; conditions: source organism: Dengue virus 1 Brazil/97-11/1997
[1] = source organism: Vaccinia virus WR
[2] = source organism: Dengue virus 1 Brazil/97-11/1997
[3] = source organism: Mammarenavirus whitewaterense
[4] = source organism: SARS coronavirus Tor2
[5] = source organism: Dengue virus 3 Martinique/1243/1999
[6] = source organism: Lymphocytic choriomeningitis virus (strain Armstrong)

Sequence: VLPFDIKKL
- Kd (HLA-A*02:01; [1]): 525 nM

Sequence: ILEDQNCKL
- Kd (HLA-A*68:02; source organism: Homo sapiens): ≥ 60000 nM

Sequence: SLIPRLVDF
- Kd (HLA-B*08:01; [1]): 12.7 nM

Sequence: TARGARRMA
- Kd (HLA-A*30:01; [2]): 6300 nM

Sequence: MFISLFMIL
- Kd (HLA-B*08:01; [1]): 223 nM

Sequence: PYIASRSQI
- Kd (HLA-A*23:01; [3]): 492 nM
- Kd (HLA-A*24:02; [3]): 2810 nM
- Kd (HLA-A*29:02; [3]): ≥ 78.9 µM

Sequence: LGSLGCKPLT
- Kd (HLA-A*30:01; source organism: Dengue virus 1 Singapore/S275/1990): 1410 nM

Sequence: RSRCRLHHL
- Kd (HLA-B*57:01): 3.54 µM
- Kd (HLA-B*58:01): 598 nM

Sequence: LMKMKKKTWL
- Kd (HLA-B*08:01; source organism: Dengue virus 4 Philippines/H241/1956): 24.1 nM

Sequence: RTAGMIIMLI
- Kd (HLA-A*68:02; source organism: Dengue virus 2 Peru/IQT2913/1996): 61.6 nM

Sequence: NLEKKITNV
- Kd (HLA-A*02:01; source organism: Vaccinia virus WR 65-16): 216 nM

Sequence: SCKVKIVPL
- Kd (HLA-B*08:01; [1]): 1430 nM

Sequence: SYREAACCHL
- Kd (HLA-A*01:01; [4]): ≥ 25.1 µM
- Kd (HLA-A*23:01; [4]): 643 nM
- Kd (HLA-A*24:02; [4]): 221 nM
- Kd (HLA-A*26:01; [4]): ≥ 69.7 µM
- Kd (HLA-A*29:02; [4]): ≥ 28.9 µM
- Kd (HLA-A*30:02; [4]): 7.04 µM

Sequence: KYKPVYSYV
- Kd (HLA-A*30:01; [1]): 0.74 nM

Sequence: FPGKTVWFV
- Kd (HLA-B*51:01; [2]): 6.36 µM
- Kd (HLA-B*53:01): 86.1 nM

Sequence: NYCEGTTVVI
- Kd (HLA-A*23:01; [5]): 101 nM
- Kd (HLA-A*24:02; [5]): 43.4 nM

Sequence: RTTWALCESI
- Kd (HLA-A*68:02; [2]): 139 nM

Sequence: TSSMRGVYY
- Kd (HLA-A*01:01; [4]): 0.0693 µM
- Kd (HLA-A*23:01; [4]): ≥ 77800 nM
- Kd (HLA-A*24:02; [4]): ≥ 77600 nM
- Kd (HLA-A*26:01; [4]): 8.3 µM
- Kd (HLA-A*29:02; [4]): 0.263 µM
- Kd (HLA-A*30:02; [4]): 0.124 µM

Sequence: ILDSFDPLV
- Kd (HLA-A*02:01; source organism: Hepacivirus hominis): 0.6 nM

Sequence: LYLTQDLFL
- Kd (HLA-A*01:01; [4]): ≥ 20.4 µM
- Kd (HLA-A*23:01; [4]): ≥ 81700 nM
- Kd (HLA-A*24:02; [4]): ≥ 70300 nM
- Kd (HLA-A*26:01; [4]): ≥ 34 µM
- Kd (HLA-A*29:02; [4]): ≥ 71.9 µM
- Kd (HLA-A*30:02; [4]): ≥ 81.1 µM

Sequence: LRTTTVSGKL
- Kd (HLA-B*08:01; [5]): 9540 nM

Sequence: VKIPTHRHI
- Kd (HLA-A*01:01; [6]): ≥ 78.1 µM
- Kd (HLA-A*23:01; [6]): ≥ 77700 nM
- Kd (HLA-A*24:02; [6]): ≥ 77500 nM
- Kd (HLA-A*26:01; [6]): ≥ 77.9 µM
- Kd (HLA-A*29:02; [6]): 15.4 µM
- Kd (HLA-A*30:02; [6]): ≥ 76.9 µM

Sequence: IPPTAGVLA
- Kd (HLA-B*51:01; [5]): 6.14 µM
